Kd data for nine sequences are collected here from the Immune Epitope Database (IEDB).

Assay [1] deals with HLA-B*27:05. The assay can be described thus: IEDB peptide-MHC binding, purified MHC/competitive/fluorescence; filed as Kd, often an IC50 or EC50 that approximates it; ≥ and ≤ were set here for values at or beyond the usual limits of such assays. To be noted: source organism: Influenza A virus H3N2.
For assay [2], the target named is HLA-B*08:01. The description is as above. The settings on record: source organism: Influenza A virus H3N2.
Assay [3] concerns the target HLA-A*02:03. The assay is described as above. To be noted: source organism: Influenza A virus H3N2.
In assay [4] the target is HLA-A*26:02. The assay is described as above. To be noted: source organism: Influenza A virus H3N2.
Assay [5] has as its target HLA-B*07:02. The assay can be described thus: IEDB peptide-MHC binding, purified MHC/direct/fluorescence; filed as Kd, often an IC50 or EC50 that approximates it; ≥ and ≤ were set here for values at or beyond the usual limits of such assays.
For assay [6], the target named is HLA-A*01:01. The description is as above.
Assay [7] deals with HLA-B*15:17. The description is as above. The settings on record: source organism: H9N2 subtype Influenza A virus (A/swine/Korea/S83/2004(H9N2)).
Assay [8] has as its target HLA-B*15:01. Described as above.
In assay [9] the target is HLA-B*57:01. The assay is described as above.
Assay [10] addresses HLA-A*68:02. The assay is described as above. The settings on record: source organism: H9N2 subtype Influenza A virus (A/swine/Korea/S83/2004(H9N2)).
In assay [11] the target is HLA-B*48:01. The description is as above.
Assay [12] addresses HLA-A*11:01. The description is as above.
Assay [13] has as its target HLA-A*31:01. Described as above.
Assay [14] has as its target HLA-B*46:01. Described as above.
In assay [15] the target is HLA-B*15:02. The description is as above. To be noted: source organism: H9N2 subtype Influenza A virus (A/swine/Korea/S83/2004(H9N2)).
The target in assay [16] is HLA-B*39:01. The description is as above.
The target in assay [17] is HLA-A*02:01. Described as above.
For assay [18], the target named is HLA-B*58:01. Described as above.
The target in assay [19] is HLA-A*69:01. The assay is described as above.
In assay [20] the target is HLA-B*51:01. The assay is described as above.
For assay [21], the target named is HLA-A*26:01. Described as above.
Assay [22] concerns the target HLA-B*27:03. Described as above.
Assay [23] concerns the target HLA-C*12:03. The description is as above. To be noted: source organism: Coxiella burnetii RSA 493.
Assay [24] has as its target HLA-B*18:01. The description is as above.
The target of assay [25] is HLA-A*03:01. Described as above.
Assay [26] deals with HLA-A*02:19. The assay is described as above.
Assay [27] concerns the target HLA-A*02:03. Described as above.
Assay [28] concerns the target HLA-A*02:11. Described as above. To be noted: source organism: Yersinia pestis CA88-4125.
In assay [29] the target is HLA-A*02:12. The description is as above.
Assay [30] concerns the target HLA-A*02:16. Described as above.
Assay [31] addresses HLA-B*15:02. The assay can be described thus: IEDB peptide-MHC binding, purified MHC/competitive/fluorescence; filed as Kd, often an IC50 or EC50 that approximates it; ≥ and ≤ were set here for values at or beyond the usual limits of such assays.
Assay [32] has as its target HLA-B*27:05. The assay can be described thus: IEDB peptide-MHC binding, purified MHC/direct/fluorescence; filed as Kd, often an IC50 or EC50 that approximates it; ≥ and ≤ were set here for values at or beyond the usual limits of such assays.
Assay [33] addresses HLA-C*06:02. Described as above. The settings on record: source organism: Kurkino virus.
In assay [34] the target is HLA-C*07:02. The assay is described as above. The settings on record: source organism: Kurkino virus.
Assay [35] concerns the target HLA-B*40:01. Described as above. The settings on record: source organism: Brucella melitensis.
The target in assay [36] is HLA-B*08:01. The description is as above. To be noted: source organism: Brucella melitensis.
Assay [37] deals with HLA-B*44:02. The assay is described as above. To be noted: source organism: Brucella melitensis.
The target of assay [38] is HLA-B*73:01. The assay is described as above. To be noted: source organism: Brucella suis 1330.
The target in assay [39] is HLA-C*08:02. Described as above. The settings on record: source organism: Bacillus anthracis str. A0389.
Where [40] appears, read: source organism: H9N2 subtype Influenza A virus (A/swine/Korea/S83/2004(H9N2)).
[41] abbreviates: source organism: Coxiella burnetii Q321.
The mark [42] stands for this setting: source organism: Yersinia pestis CA88-4125.
Setting [43] is: source organism: Yersinia enterocolitica subsp. enterocolitica 8081.
The mark [44] stands for this setting: source organism: Orthohantavirus dobravaense.
[45] abbreviates: source organism: Brucella melitensis.
The mark [46] stands for this setting: source organism: Bacillus cereus.

With FQKDAKVLF, the Kd in assay [1] was 3.34 µM; in [2], ≥ 20 µM; in [3] it was ≥ 20 µM; in assay [4], ≥ 20 µM; in assay [5] (setting [40]), ≥ 20 µM; in [6] (setting [40]), ≥ 20 µM. Also, the Kd is ≥ 20 µM in assay [7]; 0.116 µM in assay [8] (setting [40]); ≥ 20 µM in [9] (setting [40]); ≥ 20 µM in [10]; 0.99 µM in assay [11] (setting [40]); ≥ 20 µM in assay [12] (setting [40]). The Kd was ≥ 20 µM in assay [13] (setting [40]); ≥ 20 µM in assay [14] (setting [40]); 1.72 µM in [15]; ≥ 20 µM in [16] (source organism: Influenza A virus(A/swine/Shandong/fZC/2003(H9N2))); ≥ 20 µM in assay [17] (setting [40]); ≥ 20 µM in assay [18] (setting [40]). Moreover, the Kd in [19] (setting [40]) was ≥ 20 µM.

As for IAFTRLFTV, the dissociation constant (Kd) in assay [8] (setting [41]) was ≥ 20 µM; in assay [20] (setting [41]), 3.24 µM; in assay [21] (setting [41]) it was ≥ 20 µM; in [22] (setting [41]), ≥ 20 µM; in assay [14] (setting [41]), ≥ 20 µM; in assay [23], ≤ 0.001 µM. Besides, the equilibrium dissociation constant (Kd) in [24] (setting [41]), in [16] (setting [41]) and in [25] (setting [41]) was ≥ 20 µM throughout.

In the case of KLLARFLFE, the Kd in assay [26] (setting [42]), in assay [8] (setting [42]), in [9] (setting [42]), in [20] (setting [42]), in [21] (setting [42]) and in assay [27] (setting [42]) was ≥ 20 µM in each case. Moreover, the Kd in [22] (setting [42]), in assay [14] (setting [42]), in assay [24] (setting [42]), in assay [28], in [29] (setting [42]) and in assay [16] (setting [42]) was ≥ 20 µM throughout. Moreover, the equilibrium dissociation constant (Kd) in assay [30] (setting [42]), in assay [17] (setting [42]) and in [25] (setting [42]) was ≥ 20 µM each time.

As to LAYLAGWII, the dissociation constant Kd in assay [26] (setting [43]) is ≥ 20 µM; in assay [8] (setting [43]) it was ≥ 20 µM; in [20] (setting [43]) it was 1.39 µM; in assay [21] (setting [43]), ≥ 20 µM; in assay [27] (setting [43]) it was ≥ 20 µM; in assay [22] (setting [43]), ≥ 20 µM. The Kd in assay [14] (setting [43]), in assay [24] (setting [43]), in [29] (setting [43]), in [16] (setting [43]), in assay [30] (setting [43]) and in assay [17] (setting [43]) was ≥ 20 µM in each case. For the same sequence, the Kd in assay [25] (setting [43]) is ≥ 20 µM.

LLRMFDHPF: in assay [31] (source organism: Vibrio vulnificus YJ016), the Kd came out at 0.0209 µM. This counts as double-digit nanomolar.

In the case of LQLARDGMF, the equilibrium dissociation constant (Kd) in [31] (source organism: Brucella suis ATCC 23445) is ≥ 20 µM.

On to RRNDGVVQY, for which the Kd is 0.146 µM in assay [32] (setting [44]), ≥ 20 µM in assay [11] (setting [44]), 0.061 µM in assay [33] and 0.029 µM in assay [34].

With RVISDGYFK, the Kd in assay [5] (setting [45]) is ≥ 20 µM; in [32] (setting [45]), 7.19 µM; in assay [6] (setting [45]), ≥ 20 µM; in assay [8] (setting [45]), ≥ 20 µM; in [12] (setting [45]), 0.0538 µM; in [35], ≥ 20 µM. In addition, the Kd was ≥ 20 µM in assay [36]; ≥ 20 µM in assay [21] (setting [45]); 0.042 µM in assay [13] (setting [45]); ≥ 20 µM in assay [37]; ≥ 20 µM in [17] (setting [45]); ≥ 20 µM in [18] (setting [45]). For the same sequence, the figures for the equilibrium dissociation constant (Kd) in assay [25] (setting [45]), in [19] (setting [45]) and in [38] were 0.395 µM, ≥ 20 µM and ≥ 20 µM, respectively.

YTLNDAPYI: the Kd in [39] was 0.181 µM; in assay [17] (setting [46]) it was 0.0381 µM; in [19] (setting [46]), 0.0024 µM.
